Results: article PMC9646525, “Cryo-EM structure of the SEA complex” (Nature, 2022)

Molecular target: the molecule itself
Assay: cryo-EM structure; endogenous SEAC purified from yeast via Sea4-TAP (IgG Dynabeads, TEV elution in 20 mM HEPES-NaOH pH 7.4, 300 mM NaCl, 2 mM DTT), on graphene-oxide-coated grids

B1: Sea4-TAP (natural protein, UniProt P38164 1-1038, looked up)
chain: MGLIKKVTHWSYDNLIDYLSVNPTRDEVTHYKVDPENESDESIIKLHTVKDFGSITCLDYSESEIGMIGVGEKNGYLRIFNISGQNSSSPASHAPVGLNANNETSMTNASGGKAAQAENIVGSVSNLKDTQGYPVSETNYDIRVRAKKQRCINSLGINTNGLIAMGLDRNKHDSSLQIWDMNYHDDSHETINPMFSYCTNESIVSLKFLNDTSVLAASTKFLKEIDVRSPNPIYQHPTRLTYDIKLNPFNDWQFSTYGDDGTLAIWDRRKLSDQASLGDLNVASPLLTFEKLVGSGAASRKYMNSCFRWSCVRNNEFATLHRGDTIKRWRLGYYCDSNRDIAADDDNEMNIENLFVSSVHDTNTMYDRVATFDYIPRSNNGTSLICMRQSGTIYRMPISEVCSKAILNNRNSLLLSNFENTEIDEIRVNNEHEKSNLENVKTILKNLSFEDLDVSEDYFPSGHDEPNNEIEYSELSEEENEGSNDVLDSKRGFELFWKPEKLLEKDISVIMRTRASLGYGLDPMNTVEMIDSSKNLQNNAYIRNTWRWIAIAKASVDDGTMVSGDLDLGYEGVIGIWNGINGISNQDRYRQETILSDKQLNKEMEKIIKLRRKNRDRNSPIANAAGSPKYVQRRLCLIISGWDLSRSDYEDKYNIIMKNGHYEKAAAWAVFFGDIPKAVEILGSAKKERLRLIATAIAGYLAYKDLPGNNAWRQQCRKMSSELDDPYLRVIFAFIADNDWWDILYEPAISLRERLGVALRFLNDTDLTTFLDRTSSTVIENGELEGLILTGITPNGIDLLQSYVNKTSDVQSAALISIFGSPRYFRDQRVDEWIQTYRDMLKSWELFSMRARFDVLRSKLSRTKTGVLTADIKPRQIYIQCQNCKQNINTPRTSSPSSAVSTSAGNYKNGEAYRRNNADYKKFNTGSSEAQAADEKPRHKYCCPHCGSSFPRCAICLMPLGTSNLPFVINGTQSRDPMQTEDSQDGANRELVSRKLKLNEWFSFCLSCNHGMHAGHAEEWFDRHNVCPTPGCTCQCNK
notes: Sea4, S. cerevisiae, endogenous subunit of the SEAC (SEACAT, core), TAP-tagged; Captured by the TAP tag on IgG beads; the complex was released with TEV protease before SDS-PAGE and cryo-EM; Written 'Sea4-TAP'; Four copies in the SEAC; source: endogenous, yeast cells expressing Sea4-TAP; in lysate, purified on IgG-coupled Dynabeads and eluted with TEV protease
stoichiometry N: 4
